From EP3470429A1 (Numab Innovation AG, dated 2019)

Experiments:
[1] = biological target: T1, human PD-L1 expressed on cells (human, UniProt Q9NZQ7 19-290); experiment: cell-based or functional assay
[2] = biological target: T1, human PD-L1 expressed on cells; experiment: cell-based or functional assay; remark: listed apart in the source
[3] = biological target: T1, human PD-L1 expressed on cells; experiment: cell-based or functional assay; remark: listed apart in the source
[4] = biological target: human CD137-Fc chimeric protein (human) (UniProt Q07011); experiment: SPR Biacore T200, CD137-Fc captured by anti-human Fc
Chain of human CD137-Fc chimeric protein (human) (Q07011 24-186 limits assumed, change not shown): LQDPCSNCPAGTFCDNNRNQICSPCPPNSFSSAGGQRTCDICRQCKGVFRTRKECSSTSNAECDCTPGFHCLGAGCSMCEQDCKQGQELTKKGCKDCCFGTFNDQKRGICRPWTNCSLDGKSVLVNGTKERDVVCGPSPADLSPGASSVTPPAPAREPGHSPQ

[5] = biological target: T2, human PD-L1-Fc chimeric protein (human, UniProt Q9NZQ7 19-238); experiment: SPR Biacore T200, PD-L1-Fc captured by anti-human Fc
T2 construct: not shown: Fc part, captured by an anti-human IgG Fc antibody

[6] = biological target: T1, human PD-L1 expressed on cells; experiment: cell-based or functional assay; remark: listed apart in the source
human serum albumin = biological target: T3, human serum albumin (human, UniProt P02768 25-609); experiment: SPR Biacore T200, SA amine-coupled to CM5 chip, pH 5.5
T3 construct: also called HSA; human SA

[7] = biological target: T4, recombinant human PDL1 extracellular domain (human, UniProt Q9NZQ7 19-238); experiment: competition ELISA, PD-1 coated, biotinylated PD-L1 in solution, with HSA
T4 construct: also called hPDL1; hPDL1 ECD

mouse serum albumin = biological target: T5, mouse serum albumin (mouse, UniProt P07724 25-608); experiment: assay not given
T5 construct: also called MSA
T5 sequence (P07724 25-608 limits assumed): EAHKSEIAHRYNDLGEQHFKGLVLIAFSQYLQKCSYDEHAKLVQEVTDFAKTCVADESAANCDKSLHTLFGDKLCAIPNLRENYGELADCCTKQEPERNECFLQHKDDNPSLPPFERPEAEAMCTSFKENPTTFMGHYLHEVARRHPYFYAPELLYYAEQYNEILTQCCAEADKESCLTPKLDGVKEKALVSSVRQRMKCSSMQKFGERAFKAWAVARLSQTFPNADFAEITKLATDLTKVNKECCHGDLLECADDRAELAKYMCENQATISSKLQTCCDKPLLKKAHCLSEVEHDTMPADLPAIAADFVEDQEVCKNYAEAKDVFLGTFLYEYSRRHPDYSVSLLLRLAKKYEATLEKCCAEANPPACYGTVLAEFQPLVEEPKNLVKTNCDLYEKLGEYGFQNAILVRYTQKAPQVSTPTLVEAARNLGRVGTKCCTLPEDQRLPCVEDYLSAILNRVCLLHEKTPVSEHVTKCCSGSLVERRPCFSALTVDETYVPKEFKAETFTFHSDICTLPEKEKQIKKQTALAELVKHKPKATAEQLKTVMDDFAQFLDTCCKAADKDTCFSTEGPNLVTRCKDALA

B1: PRO885 (bispecific antibody)
chain: DIQMTQSPSSLSASVGDRVTITCQASQSINDYLAWYQQKPGKAPKLLIYKASTLASGVPSRFSGSGSGTDFTLTISSLQPEDFATYYCQQGYIITDIDNVFGTGTKVTVLGGGGGSQVQLQESGPGLVKPSETLSLTCKVSGFSFSNSYWICWIRQPPGKGLEWIGCTFVGSSDSTYYANWAKGRVTISVDSSKNQFSLKLSSVTAADTAVYYCARHPSDAVYGYANNLWGQGTLVTVSSGGGGSGGGGSGGGGSGGGGSIQMTQSPSSLSASVGDRVTITCQASQSINNVLAWYQQKPGKAPKLLIYRASTLASGVPSRFSGSGSGTDFTLTISSLQPEDFATYYCQSSYGNYGDFGTGTKVTVLGGGGGSQVQLQESGPGLVKPSETLSLTCKVSGFSFSSGYDMCWIRQPPGKGLEWIGCVVAGSVDITYYASWAKGRVTISVDSSKNQFSLKLSSVTAADTAVYYCARKDAYSDAFNLWGQGTLVTVSS
- EC50 (ng/ml) of IL-2 secretion, PBMC with CHO cells expressing PD-L1; 1 ug/ml anti-CD3, 50000 CHO cells/well [1]: 12.8 ng/mL
- EC50 (ng/ml) of IL-2 secretion, PBMC with CHO cells expressing PD-L1; 1 ug/ml anti-CD3, 100000 CHO cells/well [1]: 86.2 ng/mL
- EC50 (ng/ml) of IL-2 secretion, PBMC with CHO cells expressing PD-L1; 1 ug/ml anti-CD3, 200000 CHO cells/well [1]: 80.6 ng/mL
- EC50 (ng/ml) of IL-2 secretion, PBMC with CHO cells expressing PD-L1; 2 ug/ml anti-CD3, 50000 CHO cells/well [1]: 52 ng/mL
- EC50 (ng/ml) of IL-2 secretion, PBMC with CHO cells expressing PD-L1; 2 ug/ml anti-CD3, 100000 CHO cells/well [1]: 41.9 ng/mL
- EC50 (ng/ml) of IL-2 secretion, PBMC with CHO cells expressing PD-L1; 2 ug/ml anti-CD3, 200000 CHO cells/well [1]: 30.1 ng/mL
- EC50 in ng/ml of IL-2 secretion, PBMC assay using SEA stimulation [2]: 39.9 ng/mL
- IC50 (ng/ml), NF-AT Potency assay [3]: 137 ng/mL

B2: PRO1124 (bispecific antibody)
chain: DIQMTQSPSSLSASVGDRVTITCQASQSINDYLAWYQQKPGKAPKLLIYKASTLASGVPSRFSGSGSGTDFTLTISSLQPEDFATYYCQQGYIITDIDNVFGTGTKVTVLGGGGGSQVQLQESGPGLVKPSETLSLTCKASGFSFSNSYWICWVRQPPGKGLEWIGCTFVGSSDSTYYANWAKGRVTISKDSSKNQVSLKLSSVTAADTAVYFCARHPSDAVYGYANNLWGQGTLVTVSSGGGGSGGGGSGGGGSGGGGSLQMTQSPSSLSASVGDRVTITCQASQSINNVLAWYQQKPGKPPKLLIYRASTLASGVPSRFSGSGSGTDFTLTISSLQPEDFATYYCQSSYGNYGDFGTGTKVTVLGGGGGSQVQLQESGPGLVKPSETLSLTCKVSGFSFSSGYDMCWIRQPPGKGLEWIGCVVAGSVDITYYASWAKGRVTISVDSSKNQFSLKLSSVTAADTAVYYCARKDAYSDAFNLWGQGTLVTVSS
notes: also called 38-02-A04 sc06 Full scDb-i/33_03_G02 sc01 scDb-o
- fold improvement of affinity compared to PRO885 [4]: > 200 fold
- binding result [5]: binds

B3: PRO1126 (bispecific antibody)
chain: DFQLTQSPSSLSASVGDRVTITCQASQSINDYLAWYQQKPGKSPKLLIYKASTLASGVPSRFSGSGSGTDFTLTISSLQPEDFATYYCQQGYIITDIDNVFGTGTKVTVLGGGGGSQVQLQESGPGLVKPSETLSLTCKVSGFSFSNSYWICWIRQPPGKGLEWIGCTFVGSSDSTYYANWAKGRVTISVDSSKNQFSLKLSSVTAADTAVYYCARHPSDAVYGYANNLWGQGTLVTVSSGGGGSGGGGSGGGGSGGGGSIQMTQSPSSLSASVGDRVTITCQASQSINNVLAWYQQKPGKAPKLLIYRASTLASGVPSRFSGSGSGTDFTLTISSLQPEDFATYYCQSSYGNYGDFGTGTKVTVLGGGGGSQSQLQESGPGLVKPSETLSLTCKASGFSFSSGYDMCWVRQPPGKGLEWIACVVAGSVDITYYASWAKGRVTISKDSSKNQVSLKLSSVTAADTAVYFCARKDAYSDAFNLWGQGTLVTVSS
- IC50, NFAT reporter gene assay [6]: 0.0481 µg/mL
- fold improvement of neutralization potency against PRO885 [6]: 3 fold
- fold improvement in affinity compared to the CDR graft (PRO885) [5]: 20 fold

B4: PRO1057 (other)
chain: DIQMTQSPSSLSASVGDRVTITCQASQSINDYLAWYQQKPGKAPKLLIYKASTLASGVPSRFSGSGSGTDFTLTISSLQPEDFATYYCQQGYIITDIDNVFGTGTKVTVLGGGGGSQVQLQESGPGLVKPSETLSLTCKVSGFSFSNSYWICWIRQPPGKGLEWIGCTFVGSSDSTYYANWAKGRVTISVDSSKNQFSLKLSSVTAADTAVYYCARHPSDAVYGYANNLWGQGTLVTVSSGGGGSGGGGSGGGGSGGGGSIQMTQSPSSLSASVGDRVTITCQASQSINNVLAWYQQKPGKAPKLLIYRASTLASGVPSRFSGSGSGTDFTLTISSLQPEDFATYYCQSSYGNYGDFGTGTKVTVLGGGGGSQVQLQESGPGLVKPSETLSLTCKVSGFSFSSGYDMCWIRQPPGKGLEWIGCVVAGSVDITYYASWAKGRVTISVDSSKNQFSLKLSSVTAADTAVYYCARKDAYSDAFNLWGQGTLVTVSSGGGGSGGGGSVVMTQSPSSLSASVGDRVTITCQASQIISSRSAWYQQKPGQPPKLLIYQASKLASGVPSRFSGSGSGTDFTLTISSLQPEDFATYYCQCTYIDSNFGAFGGGTKLTVLGGGGGSGGGGSGGGGSGGGGSEVQLVESGGGLVQPGGSLRLSCAASGFSFSSSYWICWVRQAPGKGLEWVGCVFTGDGTTYYASWAKGRFTISRDNSKNTVYLQMNSLRAEDTATYFCARPVSVYYYGMDLWGQGTLVTVSS
notes: also called 38_02_A04 sc01 scDb-i/33-03-G02 sc01 scDb-o/mxr HSA (23-13-A01-sc03, sk17sh4)
- binding result (human serum albumin): binds
- fold higher IC50 in presence of human serum albumin [7]: ~2 fold
- binding result (mouse serum albumin): binds
- IC50 (ng/ml), NF-AT Potency assay, with HSA [3]: 665 ng/mL

B5: PRO997 (scFv)
scFv: DIQMTQSPSSLSASVGDRVTITCQASQSIGTYLAWYQQKPGKAPKLLIYRAFILASGVPSRFSGSGSGTDFTLTISSLQPEDFATYYCQSNFYSDSTTIGPNAFGTGTKVTVLGGGGGSGGGGSGGGGSGGGGSQVQLQESGPGLVKPSETLSLTCKVSGFSFNSDYWIYWIRQPPGKGLEWIGSIYGGSSGNTQYASWAQGRVTISVDSSKNQFSLKLSSVTAADTAVYYCARGYVDYGGATDLWGQGTLVTVSS
- EC50 in ng/ml of IL-2 secretion, PBMC assay using SEA stimulation [2]: 40.9 ng/mL
- IC50 (ng/ml), NF-AT Potency assay [3]: 11.1 ng/mL
